Target: the molecule itself
Test: cryo-EM in detergent; HS-AFM in lipid bilayer
Description: Briefly, for reconstituted lipids, we used a mixture of phospholipids, asolectin from soybean (Sigma-Aldrich, No. 11145). Asolectin (120 μg) was dissolved in chloroform and then evaporated under N2 gas to completely remove the solvent. Then, the lipids were suspended in 50 μL buffer A (20 mM HEPES-KOH pH 7.4, 100 mM NaCl, and 4% DDM) and sonicated for ˜1 min with a tip-sonicator. Next, dissolved membrane proteins (1 nmol) and MSP (50 μL, 1 mg/mL) (MSP1E3D1, Sigma-Aldrich, No. M7074) were added to the lipid suspension and mixed for ˜1 h while rotating in the dark at 4° C. Finally, we added 60 mg Bio-beads SM-2 (Bio-Rad, Hercules, CA, USA, No. 1523920) and dialyzed the samples in detergent overnight at 4° C. According to the manufacturer's protocol, nanodisc samples should be fractionated on a column to purify the nanodiscs based on size (˜10 nm in diameter).
A homemade HS-AFM operated in tapping mode was used (Shibata et al., 2017, 2018). An optical beam deflection detector detected the cantilever (Olympus, Tokyo, Japan: BL-AC10DS-A2) deflection using an infrared (IR) laser at 780 nm and 0.7 mW. The IR beam was focused onto the back side of the cantilever covered with a gold film through a ×60 objective lens (Nikon, Tokyo, Japan: CFI S Plan Fluor ELWD 60×). The reflected IR beam was detected by a two-segmented PIN photodiode. […]

B1: Wild-type ChRmine (M1-R304) (other)
chain: MAHAPGTDQMFYVGTMDGWYLDTKLNSVAIGAHWSCFIVLTITTFYLGYESWTSRGPSKRTSFYAGYQEEQNLALFVNFFAMLSYFGKIVADTLGHNFGDVGPFIIGFGNYRYADYMLTCPMLVYDLLYQLRAPYRVSCSAIIFAILMSGVLAEFYAEGDPRLRNGAYAWYGFGCFWFIFAYSIVMSIVAKQYSRLAQLAQDTGAEHSLHVLKFAVFTFSMLWILFPLVWAICPRGFGWIDDNWTEVAHCVCDIVAKSCYGFALARFRKTYDEELFRLLEQLGHDEDEFQKLELDMRLSSNGER
modifications: all-trans retinal covalently linked at K257 (Schiff base)
notes: Pump-like cation-conducting channelrhodopsin, purified from Sf9 cells in GDN/CHS detergent; It forms a homotrimer; The model covers residues 10-279; also called WT ChRmine; ChRmine WT
Q: Does B1 bind?
A: binds
